From the supplement of paper PMC9112550, “Optimization of the antimicrobial peptide Bac7 by deep mutational scanning” (BMC Biology, 2022)

System: Escherichia coli TOP10
Test: shrunken log2 fold change of peptide-encoding DNA abundance (4.5 h post-induction vs induction); higher = less antimicrobial activity (less host growth inhibition)
Conditions: time post-induction: 4.5 h; library: site-saturation at positions 5, 18, 19, 20
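Further: peptides expressed intracellularly from a pBAD plasmid library in pooled LB shake-flask culture, induced with 0.3% L-arabinose, DNA abundance read by NGS, three biological replicates, DESeq2 with apeglm shrinkage.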

RRIRYRPPRLPRPRPRPEELPRP
shrunken log2 fold change: -0.0326

RRIRQRPPRLPRPRPRPSNQPRP
shrunken log2 fold change: -0.359

RRIRFRPPRLPRPRPRPHPHPRP
shrunken log2 fold change: -0.168

RRIRIRPPRLPRPRPRPKWTPRP
shrunken log2 fold change: -0.116

RRIRFRPPRLPRPRPRPSPMPRP
shrunken log2 fold change: 1.17

RRIRNRPPRLPRPRPRPILCPRP
shrunken log2 fold change: -0.174

RRIRDRPPRLPRPRPRPETVPRP
shrunken log2 fold change: -0.0114

RRIRVRPPRLPRPRPRPFCAPRP
shrunken log2 fold change: 0.00539

RRIRERPPRLPRPRPRPHANPRP
shrunken log2 fold change: -0.332

RRIRERPPRLPRPRPRPLGMPRP
shrunken log2 fold change: -0.294

RRIRYRPPRLPRPRPRPTIGPRP
shrunken log2 fold change: -0.31

RRIRFRPPRLPRPRPRPENLPRP
shrunken log2 fold change: -0.0251

RRIRRRPPRLPRPRPRPCYRPRP
shrunken log2 fold change: 0.0724

RRIRSRPPRLPRPRPRPTAAPRP
shrunken log2 fold change: 1.03

RRIRDRPPRLPRPRPRPMMSPRP
shrunken log2 fold change: -0.0107

RRIRIRPPRLPRPRPRPHMYPRP
shrunken log2 fold change: -0.485

RRIRYRPPRLPRPRPRPCVRPRP
shrunken log2 fold change: 0.0523

RRIRERPPRLPRPRPRPMMCPRP
shrunken log2 fold change: -0.0137

RRIRDRPPRLPRPRPRPRPTPRP
shrunken log2 fold change: 0.381

RRIRIRPPRLPRPRPRPGSRPRP
shrunken log2 fold change: -0.0379

RRIRSRPPRLPRPRPRPSVAPRP
shrunken log2 fold change: 0.575

RRIRGRPPRLPRPRPRPQANPRP
shrunken log2 fold change: 0.111

RRIRSRPPRLPRPRPRPPIFPRP
shrunken log2 fold change: -0.576

RRIRLRPPRLPRPRPRPDSKPRP
shrunken log2 fold change: -0.24

RRIRTRPPRLPRPRPRPIPFPRP
shrunken log2 fold change: -0.325

RRIRSRPPRLPRPRPRPSGCPRP
shrunken log2 fold change: 0.208

RRIRPRPPRLPRPRPRPEIGPRP
shrunken log2 fold change: 0.0772

RRIRDRPPRLPRPRPRPIFEPRP
shrunken log2 fold change: 0.419

RRIRWRPPRLPRPRPRPLEHPRP
shrunken log2 fold change: 0.165

RRIRLRPPRLPRPRPRPMCSPRP
shrunken log2 fold change: 0.382

RRIRCRPPRLPRPRPRPTKIPRP
shrunken log2 fold change: 0.0473

RRIRSRPPRLPRPRPRPHRCPRP
shrunken log2 fold change: -0.209

RRIRGRPPRLPRPRPRPLLIPRP
shrunken log2 fold change: 0.61

RRIRPRPPRLPRPRPRPSLHPRP
shrunken log2 fold change: -0.21

RRIRMRPPRLPRPRPRPSLQPRP
shrunken log2 fold change: 0.385

RRIRQRPPRLPRPRPRPGQKPRP
shrunken log2 fold change: -0.00973

RRIRYRPPRLPRPRPRPWTHPRP
shrunken log2 fold change: -0.00149

RRIRVRPPRLPRPRPRPTPNPRP
shrunken log2 fold change: 0.306

RRIRPRPPRLPRPRPRPEDYPRP
shrunken log2 fold change: -0.0172

RRIRHRPPRLPRPRPRPFWDPRP
shrunken log2 fold change: -0.0244

RRIRDRPPRLPRPRPRPVQVPRP
shrunken log2 fold change: 0.011

RRIRNRPPRLPRPRPRPSGTPRP
shrunken log2 fold change: -0.217

RRIRIRPPRLPRPRPRPDMIPRP
shrunken log2 fold change: -0.0965

RRIRVRPPRLPRPRPRPPDHPRP
shrunken log2 fold change: 0.271

RRIRVRPPRLPRPRPRPARIPRP
shrunken log2 fold change: 0.149

RRIRQRPPRLPRPRPRPIKSPRP
shrunken log2 fold change: -0.117

RRIRKRPPRLPRPRPRPCWYPRP
shrunken log2 fold change: -0.139

RRIRRRPPRLPRPRPRPADAPRP
shrunken log2 fold change: 0.249

RRIRQRPPRLPRPRPRPDPAPRP
shrunken log2 fold change: 0.0492

RRIRARPPRLPRPRPRPLHQPRP
shrunken log2 fold change: 0.147

RRIRTRPPRLPRPRPRPRYTPRP
shrunken log2 fold change: 0.0216

RRIRTRPPRLPRPRPRPASVPRP
shrunken log2 fold change: 0.00118

RRIRSRPPRLPRPRPRPESNPRP
shrunken log2 fold change: -0.126

RRIRNRPPRLPRPRPRPSWCPRP
shrunken log2 fold change: -0.0906

RRIRFRPPRLPRPRPRPFDCPRP
shrunken log2 fold change: -0.0469

RRIRIRPPRLPRPRPRPGDYPRP
shrunken log2 fold change: -0.0189

RRIRYRPPRLPRPRPRPNTCPRP
shrunken log2 fold change: -0.155

RRIRKRPPRLPRPRPRPDFGPRP
shrunken log2 fold change: 0.052

RRIRDRPPRLPRPRPRPCSTPRP
shrunken log2 fold change: 0.248

RRIRSRPPRLPRPRPRPSKQPRP
shrunken log2 fold change: -0.225

RRIRRRPPRLPRPRPRPTCWPRP
shrunken log2 fold change: 0.225

RRIRKRPPRLPRPRPRPASTPRP
shrunken log2 fold change: 0.53

RRIRQRPPRLPRPRPRPHNRPRP
shrunken log2 fold change: -0.372

RRIRLRPPRLPRPRPRPPIYPRP
shrunken log2 fold change: -0.15

RRIRMRPPRLPRPRPRPSYTPRP
shrunken log2 fold change: -0.38

RRIRDRPPRLPRPRPRPAIQPRP
shrunken log2 fold change: 0.389

RRIRFRPPRLPRPRPRPVPWPRP
shrunken log2 fold change: 0.0558

RRIRNRPPRLPRPRPRPNWNPRP
shrunken log2 fold change: -0.691

RRIRIRPPRLPRPRPRPQYTPRP
shrunken log2 fold change: -1.18

RRIRYRPPRLPRPRPRPESTPRP
shrunken log2 fold change: -0.00514

RRIRERPPRLPRPRPRPWGRPRP
shrunken log2 fold change: 0.268

RRIRHRPPRLPRPRPRPECLPRP
shrunken log2 fold change: -0.00297

RRIRTRPPRLPRPRPRPQYGPRP
shrunken log2 fold change: -0.082

RRIRTRPPRLPRPRPRPPDPPRP
shrunken log2 fold change: 0.197

RRIRGRPPRLPRPRPRPREKPRP
shrunken log2 fold change: 0.969

RRIRVRPPRLPRPRPRPAHYPRP
shrunken log2 fold change: -0.113

RRIRERPPRLPRPRPRPEPCPRP
shrunken log2 fold change: -0.148

RRIRCRPPRLPRPRPRPTSLPRP
shrunken log2 fold change: -0.167

RRIRVRPPRLPRPRPRPRYFPRP
shrunken log2 fold change: -0.446

RRIRYRPPRLPRPRPRPGWQPRP
shrunken log2 fold change: 0.015

RRIRTRPPRLPRPRPRPMIFPRP
shrunken log2 fold change: -0.738

RRIRRRPPRLPRPRPRPMIMPRP
shrunken log2 fold change: -0.323

RRIRSRPPRLPRPRPRPIDKPRP
shrunken log2 fold change: -0.156

RRIRKRPPRLPRPRPRPPGYPRP
shrunken log2 fold change: 0.176

RRIRTRPPRLPRPRPRPNYSPRP
shrunken log2 fold change: -0.382

RRIRRRPPRLPRPRPRPVPTPRP
shrunken log2 fold change: 0.472

RRIRWRPPRLPRPRPRPDREPRP
shrunken log2 fold change: -0.0009

RRIRRRPPRLPRPRPRPLKPPRP
shrunken log2 fold change: 0.314

RRIRCRPPRLPRPRPRPGCPPRP
shrunken log2 fold change: 0.239

RRIRLRPPRLPRPRPRPSIIPRP
shrunken log2 fold change: -0.735

RRIRGRPPRLPRPRPRPTVHPRP
shrunken log2 fold change: 1.77
